± gives the uncertainty stated by the source.

The data set in a line: amyloid nucleation score (Sup35N fusion, yeast selection) (log enrichment); library NNK1; higher = more nucleation; inactive = no reads after selection. Summed up: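 The nucleation score equals the log enrichment of output over input reads from DiMSum, centred on the mode score of non-aggregating sequences. It was computed only for sequences with 100 or more input reads. The reads came from Illumina sequencing of plasmid inserts from psi-negative yeast expressing Sup35N fused to peptides of 20 random codons, induced with 100 μM copper sulfate for 24 hours and grown 7 days at 30°C without adenine and uracil.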
The substance YNRLKSIV yielded an amyloid nucleation score of 1.51 ± 0.72. Under AQSPQVNSLWCGMNFTTFPG stands 1.92 ± 0.2; under ACYNGHTSRWLR, 1.09 ± 0.85; under NWYYRWELFVACFYLYSGWE, “inactive”. Turning to ENMGELCA, the amyloid nucleation score entry is “inactive”. As for STRFPRLDALNGKKFYRKNT, the amyloid nucleation score was found to be 0.157 ± 0.66. For VRDSVTLFPK, the amyloid nucleation score is -0.277 ± 0.77. As for LIVNLKICAVHVGYHWGWRA, the figure is 0.653 ± 0.29; as for WHRSIWR, 0.753 ± 0.56; as for AKGCNMWI, 2.3 ± 0.32.

In the case of DFIKYAFSWE, the amyloid nucleation score was -0.347 ± 0.36. Substance DGQVSAVESMLRRWDSPVKG gave an amyloid nucleation score of 0.18 ± 1. As for AGSGMLSKLVLLSRKSMVIT, the figure is 1.92 ± 0.21. As for LLSLFRYN, the figure is 0.537 ± 1.1; as for PDSCIENLDMWYTFNGDNDT, -0.828 ± 0.3; as for FCWKLGANIDVDECWRWAAD, 1.29 ± 0.63.

The substance LYMPSGNIFG had an amyloid nucleation score of 0.973 ± 0.8. Under TYPYMCNHFLVLELNVIVAL stands 0.363 ± 0.58; under ESSLLLLDLGELRCYTFCLV, -0.944 ± 0.94.

As for CFFMEFYVPNSIIIYVRTPV, the amyloid nucleation score is -1.89 ± 0.96. Under SLMGALEIQRCSAFSSFLFR stands 1.32 ± 0.41. Under SLIKLVYWSHARNNCELW stands 3.5 ± 0.074; under ACDRMGGVSGPDSAAVWPYI, -1.91 ± 2.7; under YLVTGVGYGGCNIRLWE, 0.355 ± 0.83. As for DGHKGEDSMAKLNFIFRLYS, the figure is -0.33 ± 0.38. Consider WGWHNYWDGSVVVWRSATAH, for which the amyloid nucleation score was -0.414 ± 0.75. Under RFMCWVFTGCLGLSGNSSC stands 1.95 ± 0.16. Consider YKAERVKSVRTITPRVTLLW, for which the amyloid nucleation score was -0.331 ± 0.61. As for SIMSFH, the entry is “inactive”; as for YINLSYPIFTNSDLFGPCWH, 3.45 ± 0.12.

Consider MAVYFLGFIA, for which the amyloid nucleation score came to 0.604 ± 0.59.

CVFIHRSFHTLFSGRRVDYP had an amyloid nucleation score of 0.229 ± 0.55. Under AYEGKGITGHLIFSWKSKSL stands 1.55 ± 0.13; under CSGTICLIIRKLAVILTSQR, “inactive”. As for KRLTMVVRGKLSVLHP, the figure is 3.74 ± 0.12; as for LSPWSKTSIYCNLLPCIVSR, 0.571 ± 0.3; as for VTTRLPIYRVKF, 0.228 ± 0.37.

In turn, LHSSMNCRWIHTL showed an amyloid nucleation score of 0.618 ± 0.47. As for IRGTFRVSYGNGKCNSVMNY, the figure is 0.201 ± 0.42; as for GCLAPLLIDLCCFQMRNSSN, 0.05 ± 0.49.

For CFSLLNYSCFSCIDLFHPLY, the amyloid nucleation score came to 5.23 ± 0.084. On to GVGSSFSTSKAYWVGYECIT, for which the amyloid nucleation score was -0.217 ± 0.41. In the case of GFCYM, the amyloid nucleation score stood at 0.997 ± 0.35. SIGNKYKSIVWYFKCCLANL: the amyloid nucleation score came to 5.97 ± 0.066. Regarding GILYQV, the amyloid nucleation score is -0.403 ± 0.29.

Turning to NWCTNTRSIFTIRGTDAGTL, the amyloid nucleation score was -0.721 ± 1.1.

Turning to GVMIWRQRWRKVIVGGALRW, the amyloid nucleation score was -0.217 ± 0.63. Under SVKGRGRGILWMLAVSECVG stands -0.762 ± 0.62.

With TTLKGCSIY, the amyloid nucleation score was determined as 0.934 ± 0.41.

VFFKKAIIFRSKV displayed an amyloid nucleation score of 0.318 ± 0.33. As for PRPQLPVKYLYSRLIGETCG, the figure is 3.25 ± 0.071; as for VSSVGVDMMYLTTRGGCHSI, “inactive”; as for VVGELLGGTNRFGKRVSSMA, -0.057 ± 0.26. Under KSGVRYNRGRKYASTQ stands -0.302 ± 0.39; under FHRVDGVDCRTMYEGV, -0.937 ± 0.72.

As for RFNISIPD, the amyloid nucleation score is -1.01 ± 0.5.

VTGKTLTLIEFFIHSQPLSR returned an amyloid nucleation score of 0.217 ± 0.32. Under FAYRL stands 0.404 ± 0.44; under VSITRVGTFIRYLFCIARCW, -0.866 ± 0.9; under LAPGGDWYY, “inactive”. As for VKHCQFR, the figure is 1.69 ± 0.73; as for TWARRFYATRVTTCLNQRVL, 0.416 ± 0.81; as for IPWPRTPSSSGMHAL, 4.81 ± 0.074. As for MLRTQQFSLLFEYHVHGEGG, the figure is 3.75 ± 0.075; as for FALIR, 0.81 ± 0.51; as for MPCFCYTCGRVMLVRIRQTR, “inactive”. In turn, RLFRNTPSDFTFVYTCGRDA returned an amyloid nucleation score of 0.497 ± 0.57.

As for CLIVKRIFFYLNYHKKVELL, the amyloid nucleation score is -0.573 ± 1.4.

On to SVNRCFSAFLSQAIT, for which the amyloid nucleation score was 0.042 ± 0.53.

For SADKSSFKPFLESTASRVQI, the amyloid nucleation score was -0.62 ± 1.1. DPYMNWIVLYSGVRHWNGVM registered an amyloid nucleation score of 0.056 ± 1.4.

The substance IAPSNFRGWMAHYKV gave an amyloid nucleation score of 0.213 ± 0.57. As for QWGNLFLWKTIAESLLRD, the figure is 1.47 ± 0.67; as for YYLSLGLKLMSMVPVKSTY, “inactive”. For the substance FSGGGNITACGCV, the amyloid nucleation score is -0.385 ± 0.65. For the substance DYYVVLDMQQVFEGGCRFFR, the amyloid nucleation score came to 0.498 ± 0.46. As for FLKLFHLRGFLYG, the entry is “inactive”; as for CLFDATVLNVLYQEIAEPRR, “inactive”; as for CWWRV, -0.761 ± 0.83. As for PRGLVWNVPRLSKTVASILF, the figure is -0.942 ± 0.73; as for HCMLGMFHWVRRQVYRSTKW, 2.34 ± 0.25; as for YHVWTFWRRLETRINFQM, 1.13 ± 0.98. As for TCRNFRHG, the figure is -0.542 ± 0.57. In the case of WADTIFCTSACNNVSGIRWG, the amyloid nucleation score is -0.681 ± 0.58.

With NCWFCNRQNSLSGKELYVIR, the amyloid nucleation score entry was “inactive”. Under GIWCFACMSKFMYTRFSYN stands -1.02 ± 0.67; under GPFGLGSMSGSIKWRYHVCC, 0.528 ± 0.43.

Regarding RIYILIDYSVYFSSIELLHF, the amyloid nucleation score is -1.67 ± 1.1. As for NCACC, the figure is 6.12 ± 0.065; as for FICQDVNICCSL, 7.305 ± 0.052; as for LMVYK, 0.575 ± 0.55.

Take TMKVGYQGICYTETSGMSFV: the amyloid nucleation score result was “inactive”. As for NKSNSLYGSLKWGDRAYSSY, the figure is -1.31 ± 0.71. Under YFFITRAEVSDVVLLLCVCC stands -0.158 ± 0.82; under YCQQT, -1.28 ± 0.64; under LEGLRQDEVGRSASKTVKYS, 1.18 ± 0.76. Under WSRYNSPCSKSMRYRSVSEA stands -1.37 ± 1.1; under CSLSRVNHDLMVKDSSKEQR, 4.3 ± 0.073; under SGRRTYMLRMLQWVGVIAYR, -2.36 ± 2.4. In turn, GILFWSGL returned an amyloid nucleation score of 1.07 ± 0.66.

On to AVFDSKLFLQSWVASTGIRV, for which the amyloid nucleation score result is “inactive”.

With IIISTGVRFTEDSCGFAWAE, the amyloid nucleation score was -0.009 ± 0.66. Under IFSSGYAKAFVHLVCSVAQL stands -0.458 ± 0.45; under NGFCEVDIVLFRVEVVAACV, -0.965 ± 2.4.

The values are drawn from the supplement of paper PMC12042874.
